Assay results reported in PMC8663791 (2021).
Each block holds one binder with its values, some of them ahead of it.

What was measured:
Assay in all cases: activation reporter or marker
[1] = target: T1, GAD65 113-132 peptide on HLA-DRB1*04:01 (human)
T1 peptide: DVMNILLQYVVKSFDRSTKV

[2] = target: IGRP 305-324 peptide on HLA-DRB1*04:01 (human)
[3] = target: IGRP 241-260 peptide on HLA-DRB1*04:01 (human)
[4] = target: T2, GAD65 353-372 peptide on HLA-DRB1*04:01 (human)
T2 peptide: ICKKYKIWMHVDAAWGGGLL

[5] = target: GAD65 265-284 peptide on HLA-DRB1*04:01 (human)
[6] = target: T3, ZNT8 266-285 peptide on HLA-DRB1*04:01 (human)
T3 peptide: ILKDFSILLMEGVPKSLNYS

[7] = target: T4, ZNT8 1-20 peptide on HLA-DRB1*04:01 (human)
T4 peptide: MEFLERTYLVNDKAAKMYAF

[8] = target: T5, GAD65 105-124 peptide on HLA-DRB1*04:01 (human)
T5 peptide: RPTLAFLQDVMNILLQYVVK

[9] = target: T6, GAD65 553-572 peptide on HLA-DRB1*04:01 (human)
T6 peptide: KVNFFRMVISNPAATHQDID

binding result [1]: recognises
B1: Clone_839 (TCR)
alpha TRAV17 TRAJ6 CDR3: CATDEGGSYIPTF
beta TRBV11-3 TRBJ2-2 CDR3: CASSFSGELFF

binding result [2]: recognises
B2: Clone_2356 (TCR)
alpha TRAV25 TRAJ36 CDR3: CAGQTGANNLFF
beta TRBV4-3 TRBJ1-5 CDR3: CASSQEVGTVPNQPQHF

binding result [1]: recognises
B3: Clone_2062 (TCR)
alpha TRAV20 TRAJ39 CDR3: CAVQAGNAGNMLTF
beta TRBV7-6 TRBJ2-2 CDR3: CASASGVVGELFF

binding result [3]: recognises
B4: Clone_896 (TCR)
alpha TRAV12-2 TRAJ15 CDR3: CAVNPNQAGTALIF
beta TRBV6-6 TRBJ1-5 CDR3: CASAPQEAQPQHF

binding result [1]: recognises
B5: Clone_904 (TCR)
alpha TRAV9-2 TRAJ52 CDR3: CALSDYSGTSYGKLTF
beta TRBV11-2 TRBJ2-1 CDR3: CASSLIPYNEQFF

binding result [4]: recognises
B6: Clone_2312 (TCR)
alpha TRAV14DV4 TRAJ15 CDR3: CAMREMNQAGTALIF
beta TRBV6-2 TRBJ1-5 CDR3: CASTKGGTHQPQHF

binding result [5]: recognises
B7: Clone_478 (TCR)
alpha TRAV3 TRAJ28 CDR3: CAVRDMRGAGSYQLTF
beta TRBV6-5 TRBJ2-7 CDR3: CASSLGTGTGVYEQYF

binding result [6]: recognises
B8: Clone_295 (TCR)
alpha TRAV5 TRAJ22 CDR3: CAESTSGSARQLTF
beta TRBV30 TRBJ2-1 CDR3: CAWMGGYNEQFF

binding result [2]: recognises
B9: Clone_5 (TCR)
alpha TRAV3 TRAJ13 CDR3: CAVRDSFSGGYQKVTF
beta TRBV12-4 TRBJ2-7 CDR3: CASSPLAGAWSYEQYF

binding result [1]: recognises
B10: Clone_262 (TCR)
alpha TRAV12-3 TRAJ29 CDR3: CAMEGGRYNTPLVF
beta TRBV5-6 TRBJ1-1 CDR3: CASSVNRGHNTEAFF

binding result [2]: recognises
B11: Clone_300 (TCR)
alpha TRAV17 TRAJ22 CDR3: CATDSSSGSARQLTF
beta TRBV5-1 TRBJ2-7 CDR3: CASSLVGGRVDWREQYF

binding result [7]: recognises
B12: Clone_1662 (TCR)
alpha TRAV13-1 TRAJ41 CDR3: CAASGANSGYALNF
beta TRBV30 TRBJ2-5 CDR3: CAWSAQGETQYF

binding result [3]: recognises
B13: Clone_855 (TCR)
alpha TRAV8-2 TRAJ27 CDR3: CVVSVGTNAGKSTF
beta TRBV11-3 TRBJ2-2 CDR3: CASSFSGELFF

binding result [8]: recognises
B14: Clone_2073 (TCR)
alpha TRAV8-6 TRAJ57 CDR3: CAVKLQGGSEKLVF
beta TRBV2 TRBJ1-5 CDR3: CASKYNRGEQPQHF

binding result [7]: recognises
B15: Clone_1826 (TCR)
alpha TRAV13-2 TRAJ20 CDR3: CAENRSDYKLSF
beta TRBV28 TRBJ2-5 CDR3: CASSSQGQGKETQYF

binding result [1]: recognises
B16: Clone_667 (TCR)
alpha TRAV5 TRAJ7 CDR3: CAERLYGNNRLAF
beta TRBV6-1 TRBJ2-7 CDR3: CASTLLWGGDSYEQYF

binding result [9]: recognises
B17: Clone_578 (TCR)
alpha TRAV8-3 TRAJ32 CDR3: CAVGAGYGGATNKLIF
beta TRBV12-3 TRBJ2-7 CDR3: CASSFRGGGNPYEQYF

binding result [1]: recognises
B18: Clone_271 (TCR)
alpha TRAV20 TRAJ39 CDR3: CAVQAGNAGNMLTF
beta TRBV7-6 TRBJ2-2 CDR3: CASSLGVTGELFF

binding result [1]: recognises
B19: Clone_640 (TCR)
alpha TRAV41 TRAJ49 CDR3: CAAAGNQFYF
beta TRBV12-4 TRBJ2-1 CDR3: CASSFTYNEQFF

binding result [2]: recognises
B20: Clone_2353 (TCR)
alpha TRAV26-2 TRAJ48 CDR3: CILRDTISNFGNEKLTF
beta TRBV7-9 TRBJ1-2 CDR3: CASSFGSSYYGYTF
